# Reference: patent publication US20090227489A1, “STAT3 Agonists and Antagonists and Therapeutic Uses Thereof” (Johns Hopkins University, priority 2000, published 2009)
# B1: Stat3β: dominant-negative Stat3 variant, truncated form lacking the transactivation domain; delivered by the pIRES-Stat3β expression vector (protein)
# chain: AQWNQLQQLDTRYLEQLHQLYSDSFPMELRQFLAPWIESQDWAYAASKESHATLVFHNLLGEIDQQYSRFLQESNVLYQHNLRRIKQFLQSRYLEKPMEIARIVARCLWEESRLLQTAATAAQQGGQANHPTAAVVTEKQQMLEQHLQDVRKRVQDLEQKMKVVENLQDDFDFNYKTLKSQGDMQDLNGNNQSVTRQKMQQLEQMLTALDQMRRSIVSELAGLLSAMEYVQKTLTDEELADWKRRQQIACIGGPPNICLDRLENWITSLAESQLQTRQQIKKLEELQQKVSYKGDPIVQHRPMLEERIVELFRNLMKSAFVVERQPCMPMHPDRPLVIKTGVQFTTKVRLLVKFPELNYQLKIKVCIDKDSGDVAALRGSRKFNILGTNTKVMNMEESNNGSLSAEFKHLTLREQRCGNGGRANCDASLIVTEELHLITFETEVYHQGLKIDLETHSLPVVVISNICQMPNAWASILWYNMLTNNPKNVNFFTKPPIGTWDQVAEVLSWQFSSTTKRGLSIEQLTTLAEKLLGPGVNYSGCQITWAKFCKENMAGKGFSFWVWLDNIIDLVKKYILALWNEGYIMGFISKERERAILSTKPPGTFLLRFSESSKEGGVTFTWVEKDISGKTQIQSVEPYTKQQLNNMSFAEIIMGYKIMDATNILVSPLVYLYPDIPKEEAFGKYCRPESQEHPEADPGAAPYLKTKFICVTFIDAVWK
# Key:
# Stat3 = molecular target: T1, Stat3 (Mus musculus, UniProt P42227); test: EMSA of Stat3 DNA-binding activity in nuclear extracts of transfected B16 cells; type: cell-based, murine; details: B16 cells transfected with Stat3β, hSIE probe
# T1 construct: endogenous in cells; host or cells: B16 murine melanoma cells (nuclear extracts)
# Protocol: FIG. 1. Inhibition of endogenous Stat3 (SEQ. ID. NO: 1; SEQ. ID. NO:2) DNA-binding activity in B16 cells by overexpression of Stat3β (SEQ. ID. NO:3; SEQ. ID. NO:4). EMSA was performed with nuclear extracts prepared from B16 cells transfected with no DNA (lane 1), empty vector (lane 2) or Stat3β expression vector (lane 3). Extracts from NIH3T3 fibroblasts stimulated with EGF were used as a positive control for Stat1 and Stat3 (lane 4). Supershifts were performed using antibodies recognizing either Stat3 (α-ST3) or Stat3:3 (α-ST3β) with extracts derived from B16 cells transfected with no DNA (lanes 5-7), the empty vector (lanes 8-10), or Stat3β vector (lanes 11-13). ST3:3, and ST1:3, ST1:1 indicate migration of complexes containing Stat3 or Stat3β homodimers, Stat1/Stat3 heterodimers and Stat1/Stat1 homodimers, respectively. The asterisk indicates the position of supershifted complexes.
# Nuclear extracts and EMSA. Nuclear extract preparation and EMSA analysis of STAT DNA-binding activity were performed as previously described Catlett-Falcone et al., 1999, supra.
# EGF-induced Stat3 binding activity in NIH3T3 (lane 4) was used as a positive control. By supershift analysis with antibody that recognizes Stat3 but not Stat3β or antibody that recognizes Stat3β but not Stat3, it was shown that there were Stat3-Stat3 homodimers in mock-transfected B16 cells and empty vector-transfected B16 cells.
# VEGF = VEGF expression and Stat3 activity in v-Src-transformed NIH3T3 fibroblasts; type: cell-based
# Excerpt: FIG. 10A-B. Transfection of NIH3T3-Src cells with either: A. Stat3β expression vector; or B. Stat3 anti-sense oligos, results in reduced levels of VEGF protein as shown by Western blot. Src tyrosine kinase-mediated VEGF upregulation requires Stat3. Src tyrosine activity is known to upregulate VEGF expression. In Src-transformed NIH3T3 cells, VEGF expression is high.
# Src tyrosine kinase activity upregulates VEGF expression. […] NIH3T3 fibroblasts transformed by v-Src were transiently transfected with a dominant-negative variant of Stat3, Stat3β. The transfection efficiency was approximately 40% based on the number of cells that were fluorescent due to the presence of GFP. […] Forty-eight hours later, VEGF expression in v-Src-NIH3T3 fibroblasts with or without Stat3β expression was compared at both RNA and protein levels. […] Anti-sense oligonucleotides against Stat3 as well as control oligonucleotides were also transfected into v-Src-NIH3T3 cells.
# U266 cells = details: cited from earlier work
# B16 cells [1] = test: RNase protection assays of cytokine and chemokine RNA in B16 cells; type: cell-based, murine; details: 36 h after transfection
# Protocol: FIG. 7A-B. Stat3β expression in B16 cells upregulates the expression of pro-inflammatory chemokines and cytokines, which can stimulate peritoneal macrophages to produce NO. Elevated expression of pro-inflammatory cytokines and chemokines in B16 cells as a result of Stat3β expression (A. TNF-α, IL-6, IFN-β; B. IP-10). Total RNAs were prepared form mock-transfected, GFP-transfected, Stat3β-transfected and UV-irradiated B16 cells. Data shown have been confirmed with at least one more experiment, in which RNAs were prepared from independent transfectants and UV-irradiated B16 tumor cells.
# RNase protection assays. 10 μg of total RNA isolated from either pIRES-EGFP- or pIRES-Stat3 β-transfected B16 cells (36 h after transfection) was hybridized to multi-template probes from PharMingen (mCK-5, Top Panel; mCK-3, Lower Panel) that were labeled with ^32P-dUTP using in vitro transcription. The RNA encoded by GAPDH housekeeping gene was used to normalize the amounts of RNAs loaded in each lane. Similar protocols were used to determine RNA expression profiles of macrophages treated with supernatants derived from B16 cells transfected with either Stat3β or GFP vector. […]
# RNA expression profiles of a number of cytokines and chemokines in pIRES-Stat3β transfected B16 cells were determined. […]
# B16 cells [2] = test: Cell growth inhibition assay, live cells by trypan blue exclusion; type: cell-based, murine; details: 48 h later, vs pIRES-EGFP
# Protocol: Cell growth inhibition assay. Cells were plated at 1.7×10^5 cells/well in 6-well plates, followed by transfection with either pIRES-EGFP or pIRES-Stat3β plasmids 24 h later. Cells were harvested at 24 h, 48 h or 72 h to determine the numbers of live cells. Cell viability was determined by trypan blue exclusion.
# (§1) This G0/G1 phase arrest was observed as early as 24 hourspost transfection. At 48 hours post transfection with Stat3β vector, Annexin V-PE staining followed by FACS analysis to detect apoptotic activity was performed with transfected B16 cells. A high level of apoptosis in Stat3β transfected cells (75%) relative to empty vector transfected cells (25%) was observed, as shown in FIG. 2C. Increased levels of apoptosis as a result of Stat3β transfection was confirmed by confocal laser scanning microscope analysis using rhodamine-labelled TUNEL assay.
# B16 cells [3] = test: Apoptosis assay, Annexin V-PE staining and FACS; type: cell-based, murine; details: 48 hours post transfection; empty vector 25%
# Protocol: Apoptosis assay. B16 cells transfected with pIRES-EGFP or pIRES-Stat3β were washed with CellScrub™ buffer (Gene Therapy Systems, San Diego, Calif.) 24 h after transfection. Apoptosis of transiently-transfected B16 cells was analyzed after staining with Annexin V-PE by two-color flow cytometry. Apoptosis of non-transfected tumor cells in the upper chambers of Transwell units was analyzed after staining with Annexin V-PE and VIA-PROBE™ 7-AAD (Pharmingen, San Diego, Calif.) by two-color flow cytometry.
# as §1
# T1 sequence (P42227 whole entry): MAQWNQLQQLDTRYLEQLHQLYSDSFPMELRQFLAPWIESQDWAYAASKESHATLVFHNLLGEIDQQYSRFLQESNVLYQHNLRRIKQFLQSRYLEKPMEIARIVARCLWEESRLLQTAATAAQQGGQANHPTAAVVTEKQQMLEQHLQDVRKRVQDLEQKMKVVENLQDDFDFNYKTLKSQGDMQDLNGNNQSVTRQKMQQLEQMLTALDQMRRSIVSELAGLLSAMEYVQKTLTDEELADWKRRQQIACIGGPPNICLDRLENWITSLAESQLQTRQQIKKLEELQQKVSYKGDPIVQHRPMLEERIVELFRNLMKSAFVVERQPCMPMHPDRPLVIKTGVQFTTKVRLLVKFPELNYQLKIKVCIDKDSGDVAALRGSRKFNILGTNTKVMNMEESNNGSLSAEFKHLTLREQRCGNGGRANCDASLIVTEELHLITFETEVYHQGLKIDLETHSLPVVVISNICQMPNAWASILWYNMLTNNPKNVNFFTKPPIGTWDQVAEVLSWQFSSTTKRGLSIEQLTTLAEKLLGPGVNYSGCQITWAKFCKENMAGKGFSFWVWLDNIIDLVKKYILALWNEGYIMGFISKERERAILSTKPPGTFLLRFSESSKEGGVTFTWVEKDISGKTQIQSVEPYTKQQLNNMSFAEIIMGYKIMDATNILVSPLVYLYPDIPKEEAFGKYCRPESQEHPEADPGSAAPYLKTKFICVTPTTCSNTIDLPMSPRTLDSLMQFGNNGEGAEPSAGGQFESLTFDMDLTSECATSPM
molecule,measurement,setting,value
B1,Stat3 DNA-binding complexes (supershift analysis),Stat3,mostly Stat3β-Stat3β homodimer formation
same,Stat3 DNA binding activity (EMSA),VEGF; v-Src NIH3T3,loss of Stat3 DNA binding activity
same,VEGF expression,"VEGF; v-Src NIH3T3, forty-eight hours",inhibits VEGF
same,expression of the Bcl-XL gene,U266 cells,down-regulated expression of the Stat3-regulated Bcl-XL gene
same,sensitization to Fas-mediated apoptosis,U266 cells; in vitro,dramatic sensitization of cells to Fas-mediated apoptosis
same,expression levels of IL-4 and IL-10 mRNAs,B16 cells [1],"but not IL-4 and IL-10, were elevated"
same,"expression levels of IFN-β, TNF-α, IL-6 and IP-10 mRNAs","B16 cells [1]; vs mock, control vector and UV-irradiated B16 cells",elevated
same,number of live B16 cells,B16 cells [2],decreases dramatically
same,level of apoptosis,B16 cells [3],75%
